The source of these data is article PMC9012456 (Science Advances, 2022).

To fix the notation:
B1: KaiA (natural protein)
chain: MLSQIAICIWVESTAILQDCQRALSADRYQLQVCESGEMLLEYAQTHRDQIDCLILVAANPSFRAVVQQLCFEGVVVPAIVVGDRDSEDPDEPAKEQLYHSAELHLGIHQLEQLPYQVDAALAEFLRLAPVETMADHIMLMGANHDPELSSQQRDLAQRLQERLGYLGVYYKRDPDRFLRNLPAYESQKLHQAMQTSYREIVLSYFSPNSNLNQSIDNFVNMAFFADVPVTKVVEIHMELMDEFAKKLRVEGRSEDILLDYRLTLIDVIAHLCEMYRRSIPRET
B2: KaiC-pSpT (KaiC fully phosphorylated at S431 and T432) (natural protein)
chain: MTSAEMTSPNNNSEHQAIAKMRTMIEGFDDISHGGLPIGRSTLVSGTSGTGKTLFSIQFLYNGIIEFDEPGVFVTFEETPQDIIKNARSFGWDLAKLVDEGKLFILDASPDPEGQEVVGGFDLSALIERINYAIQKYRARRVSIDSVTSVFQQYDASSVVRRELFRLVARLKQIGATTVMTTERIEEYGPIARYGVEEFVSDNVVILRNVLEGERRRRTLEILKLRGTSHMKGEYPFTITDHGINIFPLGAMRLTQRSSNVRVSSGVVRLDEMCGGGFFKDSIILATGATGTGKTLLVSRFVENACANKERAILFAYEESRAQLLRNAYSWGMDFEEMERQNLLKIVCAYPESAGLEDHLQIIKSEINDFKPARIAIDSLSALARGVSNNAFRQFVIGVTGYAKQEEITGLFTNTSDQFMGAHSITDSHISTITDTIILLQYVEIRGEMSRAINVFKMRGSWHDKAIREFMISDKGPDIKDSFRNFERIISGSPTRITVDEKSELSRIVRGVQEKGPES
modifications: phosphorylated S431 (pS431), phosphorylated T432 (pT432)
B3: KaiC-pST (KaiC phosphorylated at S431 only) (natural protein)
chain: B2 chain
modifications: phosphorylated S431 (pS431)
B4: KaiC T432V mutant (KaiC-SV) (natural protein)
chain: B2 chain with T432V
B5: KaiB (natural protein)
chain: MSPRKTYILKLYVAGNTPNSVRALKTLKNILEVEFQGVYALKVIDVLKNPQLAEEDKILATPTLAKVLPLPVRRIIGDLSDREKVLIGLDLLYGELQDSDDF

The target of data set [1] is B4. Nature of the data set: SEC-MALS.
The data set “crystal structure” concerns the molecule itself. Briefly: crystal structure.

Changes are numbered by the printed parent chain. Numbers in names are those of the source.

Take B1: in data set [1], the binding result is on record as “binds”.

By stoichiometry N is commonly meant the number of molecules, sites or subunits per partner or assembly. As for B2, the “stoichiometry N” value in the data set “crystal structure” was 6.

On to B3, for which the “stoichiometry N” value in the data set “crystal structure” was 6.

Take B4: in the data set “crystal structure”, the binding result is on record as “binds”.

For B5, the binding result in data set [1] is on record as “binds”.
